From publication PMC10406861 come the findings set out here.

Experiment [1] concerns the target Histone H2A-H2B dimer (H2B T112C labeled with Cy5.5) (X. laevis) (UniProt P06897).
Experiment [2] has the same target. This is another data set of the same source.

Regarding “6xHis-Yeast nucleosome assembly protein 1 (Nap1) (from UniProt P25293 1-417) (natural protein)”, the rate constant of H2A-H2B exchange between nucleosomes containing H3KS56ac (three-color smFRET), in the presence of Nap1 in experiment [1] amounted to 1380 M⁻¹ s⁻¹. Moreover, in experiment [2], the rate constant of H2A-H2B exchange between CpG methylated nucleosomes (three-color smFRET), in the presence of Nap1 was determined as 626 M⁻¹ s⁻¹.
